1 molecule from patent US20240059766A1 can be followed below.

For assay [1], the target named is T1, Tau(pS404) peptide (human).
T1 sequence (peptide, only S404 phosphorylated (pS404)): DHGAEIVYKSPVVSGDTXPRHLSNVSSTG
Kind of assay: direct ELISA, TauS404 coated at 1 ug/mL, antibody titrated. Background: An ELISA detects its analyte on a solid surface through an enzyme-linked reagent.

The target in assay [2] is T1, Tau(pS404) peptide (human). Kind of assay: competition ELISA, TauS404 coated at 1 ug/mL, VY014 titrated; AC04 peptide at 1 µg/mL as competitor in solution.
Assay [3] addresses T1, Tau(pS404) peptide (human). Kind of assay: competition ELISA, TauS404 coated at 1 ug/mL, VY014 titrated; peptide 12 at 1 µg/mL as competitor in solution.

B1: VY014 (antibody, V domains shown)
VH: EVQLVESGGGLVQPGGSLRLSCAASGFTFNNYDMHWVRQAAGKGLEWVSTIGAAGDTYYPGSVKGRFIISRENAKNSLYLQMNSLRAGDTAVYYCARAGETLEGATIGYYYGMDVWGQGTTVTVSS
VL: DILMTQSPLSLPVTPGEPASISCRSSQSLLHSNGYNYLDWYLQKPGQSPQLLIYLGSNRASGVPDRFSGSGSGTDFTLKFSRVEAEDVGLYYCMQALQIPLTFGGGTKVEIK
As to B1, the results for the 50% effective concentration (EC50 (read off the curve)) in assay [1], in assay [2] and in assay [3] were 0.06 nM, 0.08 nM and 0.2 nM, respectively.
